Measurements reported in publication PMC10599522.

Biological target: T1, 6his-GSU1771 (Geobacter sulfurreducens (DL1 wild-type background)) (UniProt Q74CA3)
T1 sequence: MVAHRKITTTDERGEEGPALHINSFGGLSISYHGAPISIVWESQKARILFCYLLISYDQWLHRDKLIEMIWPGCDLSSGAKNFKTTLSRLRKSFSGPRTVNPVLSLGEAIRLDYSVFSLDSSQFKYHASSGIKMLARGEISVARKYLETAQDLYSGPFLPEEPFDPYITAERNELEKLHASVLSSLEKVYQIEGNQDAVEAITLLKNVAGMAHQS
Test: EMSA
Conditions: 40 mM HEPES, 8 mM MgCl2, 50 mM KCl, 1 mM DTT, 0.05% NP-40, 0.1 mg/ml BSA, 20 ul, 30 C 30 min, pH not stated; 100 ng of each fragment; 6% native PAGE in 0.5X …

Row | Sequence | binding
1 | ACCATCTTCGCATCCCTGTGGAGGATCTCTGCTTTTCCTGCCACGACCGATAGCAGTGACTATTGTGTTGTGGTGGGTGTGTTGTGATGGTGTTGCGGTCATGTTTCTGCTTGTTTTTATTTTTAATTTTACCCATTTTGTGCTAAGAAAATCTAATGGCCCTATACCACTGTAAGCTCGGCTCCTCGGAG (double strand) [pulF promoter] | binds
2 | AGGCTTGCTCGTCTCATGTCGCGCCGCCGTGGGAAAAAGTAGTAACCAGTAGTATATCATTTCGTCACCGTGGTTTCATTGCTTGAGCTTTTTTGCATCCGAAGCGACTCCAGCCTGTGCCCTCCGGCAATAAACCGCTTTTCCCCCGCCGGTGATGGTGGTACTCTCCTCCCATTTCGCGGAGGATGGAGTGCATGGAT (double strand) [gsu3356 promoter] | binds
3 | CGCTGGATCTCCTGAAAGGGTGGGAAATCCTGAAAACAATAAGCAAATGAGAGGATGACTTACGCCAAAAGGGGGGGCTCGGGCCCCCCCTTTTTTTATGTAAATCCGATAAGTTCTATATTTGTATTGACACTCCCGTAACGATGTAGTATTCAGTAGGTAAATTAATCACAGTTAAGGTAAGGGTGTATCGCG (double strand) [gsu1771 promoter] | binds
4 | GTGGTATTCATGCACGTATTCTAATGACGGCCCGCAACCCAGGTGGAGCCGTCATCCTTTTTTTCGGATATACTGCCTGGATTCACGACTGAACCGGGACGGAAGGCAATAGCCGCACCGACGAGGATAGGATGAGCTTTCCCTTC (double strand) [gsu1704-gsu1705 intergenic region] | no binding
